According to patent publication US10562947B2, “Compositions and methods for preventing or treating diseases, conditions or processes characterized by aberrant fibroblast proliferation and extracellular matrix deposition” (MOERAE MATRIX, INC., priority 2011, dated 2020):

Assays:
Test in all cases: Kinase Profiling Assay
Assay type in all cases: biochemical
Settings in all cases: 100 μM peptide
[1] = target: Mnk2(h) (Homo sapiens, UniProt Q9HBH9)
How it was run: (§1)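 MK2 inhibitory peptides were screened for specificity across a commercial panel of 266 human kinases, and each kinase activity measurement was run in duplicate.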

[2] = target: KDR(h) (Homo sapiens, UniProt P35968)
Chain of KDR(h) (P35968 20-1356): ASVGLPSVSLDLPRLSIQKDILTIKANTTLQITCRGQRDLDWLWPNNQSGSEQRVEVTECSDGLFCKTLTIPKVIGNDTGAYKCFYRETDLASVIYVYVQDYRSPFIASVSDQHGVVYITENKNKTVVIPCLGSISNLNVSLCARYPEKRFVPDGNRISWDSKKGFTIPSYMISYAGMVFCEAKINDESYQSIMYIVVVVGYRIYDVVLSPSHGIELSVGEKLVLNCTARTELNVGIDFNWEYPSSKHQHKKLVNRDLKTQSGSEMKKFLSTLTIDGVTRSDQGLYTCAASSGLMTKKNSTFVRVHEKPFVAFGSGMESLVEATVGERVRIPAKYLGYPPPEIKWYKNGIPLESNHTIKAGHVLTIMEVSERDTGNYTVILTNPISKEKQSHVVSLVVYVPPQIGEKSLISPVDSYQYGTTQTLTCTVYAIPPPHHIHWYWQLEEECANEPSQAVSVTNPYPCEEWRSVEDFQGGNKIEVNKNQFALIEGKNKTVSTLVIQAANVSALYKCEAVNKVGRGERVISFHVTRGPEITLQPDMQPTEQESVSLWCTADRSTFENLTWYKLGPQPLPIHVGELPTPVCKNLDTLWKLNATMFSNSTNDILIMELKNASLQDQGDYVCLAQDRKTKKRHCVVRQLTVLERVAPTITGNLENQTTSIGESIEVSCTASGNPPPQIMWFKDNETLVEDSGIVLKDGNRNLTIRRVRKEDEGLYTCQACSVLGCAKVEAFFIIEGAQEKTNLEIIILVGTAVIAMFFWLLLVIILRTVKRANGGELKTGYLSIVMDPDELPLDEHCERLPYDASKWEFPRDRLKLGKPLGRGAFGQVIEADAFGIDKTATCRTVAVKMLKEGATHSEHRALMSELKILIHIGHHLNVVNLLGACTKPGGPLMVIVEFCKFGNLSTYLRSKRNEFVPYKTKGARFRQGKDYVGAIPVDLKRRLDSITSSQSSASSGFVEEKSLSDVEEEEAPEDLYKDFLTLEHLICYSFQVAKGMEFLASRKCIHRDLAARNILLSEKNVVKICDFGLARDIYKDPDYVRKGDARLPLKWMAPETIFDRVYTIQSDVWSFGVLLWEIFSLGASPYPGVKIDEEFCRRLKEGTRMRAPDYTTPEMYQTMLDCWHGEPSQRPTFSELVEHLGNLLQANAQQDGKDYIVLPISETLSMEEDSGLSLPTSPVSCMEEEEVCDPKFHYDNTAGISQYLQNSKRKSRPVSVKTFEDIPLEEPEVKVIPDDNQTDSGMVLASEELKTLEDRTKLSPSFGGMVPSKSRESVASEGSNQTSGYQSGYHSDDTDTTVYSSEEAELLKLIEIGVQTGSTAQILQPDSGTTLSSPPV
How it was run: as §1

[3] = target: CaMKIδ(h) (Homo sapiens, UniProt Q8IU85)
Chain of CaMKIδ(h) (Q8IU85 whole entry): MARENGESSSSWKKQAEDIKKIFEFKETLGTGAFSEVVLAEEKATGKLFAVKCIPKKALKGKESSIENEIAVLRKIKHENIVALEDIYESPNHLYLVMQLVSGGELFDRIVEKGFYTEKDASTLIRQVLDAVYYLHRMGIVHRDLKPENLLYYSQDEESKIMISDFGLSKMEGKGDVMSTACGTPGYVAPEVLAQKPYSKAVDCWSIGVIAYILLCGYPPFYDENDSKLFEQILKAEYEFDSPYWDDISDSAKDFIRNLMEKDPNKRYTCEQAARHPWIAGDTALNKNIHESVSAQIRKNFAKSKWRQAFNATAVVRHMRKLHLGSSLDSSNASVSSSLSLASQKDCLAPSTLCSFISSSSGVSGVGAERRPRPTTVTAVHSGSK
How it was run: as §1

[4] = target: T1, SAPK3(h) (Homo sapiens, UniProt P53778)
T1 sequence (P53778 1-367): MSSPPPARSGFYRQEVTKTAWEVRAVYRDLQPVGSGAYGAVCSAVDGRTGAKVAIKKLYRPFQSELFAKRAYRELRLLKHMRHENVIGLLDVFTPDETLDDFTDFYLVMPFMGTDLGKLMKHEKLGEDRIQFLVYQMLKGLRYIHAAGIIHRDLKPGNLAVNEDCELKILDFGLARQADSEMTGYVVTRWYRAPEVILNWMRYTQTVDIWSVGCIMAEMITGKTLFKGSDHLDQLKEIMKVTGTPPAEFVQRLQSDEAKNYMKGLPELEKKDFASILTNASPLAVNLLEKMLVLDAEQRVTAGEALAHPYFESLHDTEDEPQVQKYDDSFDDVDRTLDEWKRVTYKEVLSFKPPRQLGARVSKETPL
How it was run: as §1

[5] = target: VRK2(h) (Homo sapiens, UniProt Q86Y07)
Chain of VRK2(h) (Q86Y07 whole entry): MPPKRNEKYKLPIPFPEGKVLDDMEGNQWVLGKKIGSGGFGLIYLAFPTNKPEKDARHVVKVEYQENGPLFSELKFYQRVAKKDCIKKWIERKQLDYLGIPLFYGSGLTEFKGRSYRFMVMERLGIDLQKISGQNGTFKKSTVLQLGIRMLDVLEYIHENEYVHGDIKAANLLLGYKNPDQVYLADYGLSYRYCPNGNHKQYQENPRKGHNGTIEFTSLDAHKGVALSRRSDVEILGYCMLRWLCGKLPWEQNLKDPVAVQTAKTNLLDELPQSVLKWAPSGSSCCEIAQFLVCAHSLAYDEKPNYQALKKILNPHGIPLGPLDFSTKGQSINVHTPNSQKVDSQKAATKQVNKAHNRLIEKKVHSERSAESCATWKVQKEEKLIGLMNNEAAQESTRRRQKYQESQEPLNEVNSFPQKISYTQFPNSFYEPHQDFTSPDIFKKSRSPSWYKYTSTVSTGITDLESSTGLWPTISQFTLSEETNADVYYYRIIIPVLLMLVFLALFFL
How it was run: as §1

[6] = target: mTOR/FKBP12(h) (Homo sapiens, UniProt P42345)
How it was run: as §1

[7] = target: Abl(Q252H)(h) (Homo sapiens, UniProt P00519, Q252H)
How it was run: as §1

[8] = target: T2, IGF-1R(h), activated (Homo sapiens, UniProt P08069)
T2 construct: purchased Millipore
T2 sequence (P08069 959-1367 limits assumed): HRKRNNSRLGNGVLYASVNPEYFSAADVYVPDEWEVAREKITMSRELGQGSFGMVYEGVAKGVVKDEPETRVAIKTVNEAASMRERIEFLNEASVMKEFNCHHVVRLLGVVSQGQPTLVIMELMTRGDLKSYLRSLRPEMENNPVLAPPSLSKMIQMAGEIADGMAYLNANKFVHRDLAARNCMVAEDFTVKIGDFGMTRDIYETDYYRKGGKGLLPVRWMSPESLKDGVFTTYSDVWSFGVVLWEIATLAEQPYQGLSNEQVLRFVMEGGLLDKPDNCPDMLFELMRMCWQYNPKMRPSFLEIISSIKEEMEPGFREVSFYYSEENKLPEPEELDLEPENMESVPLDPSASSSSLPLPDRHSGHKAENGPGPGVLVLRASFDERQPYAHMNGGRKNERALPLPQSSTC
How it was run: as §1

[9] = target: CSK(h) (Homo sapiens, UniProt P41240)
How it was run: as §1

[10] = target: T3, GSK3α(h) (Homo sapiens, UniProt P49840)
T3 construct: purchased Millipore
How it was run: as §1

[11] = target: T4, PKCι(h) (Homo sapiens, UniProt P41743)
T4 construct: purchased Millipore (IC50 Profiler Express service)
T4 sequence (P41743 1-596): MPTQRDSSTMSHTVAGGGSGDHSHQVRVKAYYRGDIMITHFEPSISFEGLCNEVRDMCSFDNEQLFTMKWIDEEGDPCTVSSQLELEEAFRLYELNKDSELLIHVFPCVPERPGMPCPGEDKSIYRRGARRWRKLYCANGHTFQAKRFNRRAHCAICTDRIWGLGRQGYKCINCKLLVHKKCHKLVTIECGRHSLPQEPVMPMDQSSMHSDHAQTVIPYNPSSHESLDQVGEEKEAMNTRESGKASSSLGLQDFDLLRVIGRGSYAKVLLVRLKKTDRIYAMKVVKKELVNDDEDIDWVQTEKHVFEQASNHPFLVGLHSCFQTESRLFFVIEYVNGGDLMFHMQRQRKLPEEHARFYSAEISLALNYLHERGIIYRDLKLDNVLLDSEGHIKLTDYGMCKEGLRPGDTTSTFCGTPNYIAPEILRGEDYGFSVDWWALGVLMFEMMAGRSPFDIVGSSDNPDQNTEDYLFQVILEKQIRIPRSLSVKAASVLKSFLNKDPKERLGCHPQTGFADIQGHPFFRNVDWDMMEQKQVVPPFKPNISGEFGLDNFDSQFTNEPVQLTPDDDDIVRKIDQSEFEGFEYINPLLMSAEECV
How it was run: as §1

[12] = target: T5, EphA3(h) (Homo sapiens, UniProt P29320)
T5 sequence (P29320 21-983): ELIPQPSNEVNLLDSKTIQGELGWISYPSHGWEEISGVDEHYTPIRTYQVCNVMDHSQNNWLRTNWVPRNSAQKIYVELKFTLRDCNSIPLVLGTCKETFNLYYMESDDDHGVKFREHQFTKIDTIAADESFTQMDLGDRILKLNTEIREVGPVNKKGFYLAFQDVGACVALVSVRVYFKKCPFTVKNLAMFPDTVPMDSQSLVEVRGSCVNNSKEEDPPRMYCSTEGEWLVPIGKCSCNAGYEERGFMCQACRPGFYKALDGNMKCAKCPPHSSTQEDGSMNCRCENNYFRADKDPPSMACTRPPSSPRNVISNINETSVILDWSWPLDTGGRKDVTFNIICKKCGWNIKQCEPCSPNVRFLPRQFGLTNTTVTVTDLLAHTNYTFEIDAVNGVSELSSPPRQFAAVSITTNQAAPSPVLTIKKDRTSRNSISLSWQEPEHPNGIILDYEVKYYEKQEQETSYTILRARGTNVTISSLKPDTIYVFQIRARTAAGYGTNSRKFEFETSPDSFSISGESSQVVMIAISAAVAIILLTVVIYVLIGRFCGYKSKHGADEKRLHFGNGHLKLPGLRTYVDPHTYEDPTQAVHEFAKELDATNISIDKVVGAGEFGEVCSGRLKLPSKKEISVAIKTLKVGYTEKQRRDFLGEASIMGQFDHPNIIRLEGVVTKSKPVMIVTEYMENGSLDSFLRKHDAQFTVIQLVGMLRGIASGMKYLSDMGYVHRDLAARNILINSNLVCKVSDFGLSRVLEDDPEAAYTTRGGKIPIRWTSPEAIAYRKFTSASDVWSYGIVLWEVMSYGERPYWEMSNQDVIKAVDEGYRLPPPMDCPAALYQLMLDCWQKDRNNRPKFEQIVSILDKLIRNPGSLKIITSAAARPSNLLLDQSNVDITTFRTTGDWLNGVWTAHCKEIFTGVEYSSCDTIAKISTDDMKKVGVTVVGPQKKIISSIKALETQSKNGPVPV
How it was run: as §1

[13] = target: ZIPK(h) (Homo sapiens, UniProt O43293)
Chain of ZIPK(h) (O43293 whole entry): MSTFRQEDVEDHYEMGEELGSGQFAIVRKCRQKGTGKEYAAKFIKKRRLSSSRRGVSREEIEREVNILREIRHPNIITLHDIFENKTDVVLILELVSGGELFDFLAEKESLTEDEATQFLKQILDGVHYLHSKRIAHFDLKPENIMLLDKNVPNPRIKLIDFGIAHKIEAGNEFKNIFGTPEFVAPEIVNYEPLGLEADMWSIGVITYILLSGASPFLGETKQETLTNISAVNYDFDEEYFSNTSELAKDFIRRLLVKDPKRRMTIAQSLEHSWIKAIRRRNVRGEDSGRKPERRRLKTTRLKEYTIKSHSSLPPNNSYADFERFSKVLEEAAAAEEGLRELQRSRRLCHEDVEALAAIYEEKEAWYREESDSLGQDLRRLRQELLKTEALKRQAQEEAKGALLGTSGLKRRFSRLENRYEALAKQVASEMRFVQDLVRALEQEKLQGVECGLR
How it was run: as §1

[14] = target: PAK2(h) (Homo sapiens, UniProt Q13177)
Chain of PAK2(h) (Q13177 whole entry): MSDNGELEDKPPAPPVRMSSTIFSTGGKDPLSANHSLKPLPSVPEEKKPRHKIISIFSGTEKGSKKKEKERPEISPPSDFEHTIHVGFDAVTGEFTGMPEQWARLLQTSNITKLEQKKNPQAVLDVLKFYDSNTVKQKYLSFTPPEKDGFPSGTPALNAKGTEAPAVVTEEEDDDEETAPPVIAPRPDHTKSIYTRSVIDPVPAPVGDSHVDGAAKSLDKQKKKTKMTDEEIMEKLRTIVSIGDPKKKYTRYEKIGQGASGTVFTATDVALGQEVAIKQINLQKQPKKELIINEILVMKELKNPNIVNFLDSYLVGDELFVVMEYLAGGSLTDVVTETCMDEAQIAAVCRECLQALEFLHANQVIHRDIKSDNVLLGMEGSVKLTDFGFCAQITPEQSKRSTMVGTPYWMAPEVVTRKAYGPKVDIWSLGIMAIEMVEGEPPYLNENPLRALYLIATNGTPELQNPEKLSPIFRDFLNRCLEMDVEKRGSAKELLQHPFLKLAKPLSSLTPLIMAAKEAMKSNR
How it was run: as §1

[15] = target: PKCη(h) (Homo sapiens, UniProt P24723)
Chain of PKCη(h) (P24723 whole entry): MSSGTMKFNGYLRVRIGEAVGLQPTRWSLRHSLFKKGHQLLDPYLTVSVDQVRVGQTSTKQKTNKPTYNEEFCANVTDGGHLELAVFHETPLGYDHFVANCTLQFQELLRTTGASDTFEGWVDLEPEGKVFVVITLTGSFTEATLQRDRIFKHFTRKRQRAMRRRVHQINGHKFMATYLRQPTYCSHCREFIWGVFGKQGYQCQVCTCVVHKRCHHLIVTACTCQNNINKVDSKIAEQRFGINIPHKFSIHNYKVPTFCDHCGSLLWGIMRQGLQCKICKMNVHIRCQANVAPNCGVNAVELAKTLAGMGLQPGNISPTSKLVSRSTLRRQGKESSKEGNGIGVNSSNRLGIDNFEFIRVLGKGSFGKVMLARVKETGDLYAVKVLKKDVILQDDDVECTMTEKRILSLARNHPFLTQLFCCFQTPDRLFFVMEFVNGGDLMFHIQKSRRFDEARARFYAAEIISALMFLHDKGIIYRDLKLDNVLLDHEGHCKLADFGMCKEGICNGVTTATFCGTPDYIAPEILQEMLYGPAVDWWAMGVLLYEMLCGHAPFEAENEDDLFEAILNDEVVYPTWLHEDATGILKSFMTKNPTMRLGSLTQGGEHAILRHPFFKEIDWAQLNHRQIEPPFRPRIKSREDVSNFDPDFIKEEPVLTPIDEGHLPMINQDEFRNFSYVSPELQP
How it was run: as §1

[16] = target: cSRC(h) (Homo sapiens, UniProt P12931)
How it was run: as §1

Chain of Mnk2(h) (Q9HBH9 whole entry): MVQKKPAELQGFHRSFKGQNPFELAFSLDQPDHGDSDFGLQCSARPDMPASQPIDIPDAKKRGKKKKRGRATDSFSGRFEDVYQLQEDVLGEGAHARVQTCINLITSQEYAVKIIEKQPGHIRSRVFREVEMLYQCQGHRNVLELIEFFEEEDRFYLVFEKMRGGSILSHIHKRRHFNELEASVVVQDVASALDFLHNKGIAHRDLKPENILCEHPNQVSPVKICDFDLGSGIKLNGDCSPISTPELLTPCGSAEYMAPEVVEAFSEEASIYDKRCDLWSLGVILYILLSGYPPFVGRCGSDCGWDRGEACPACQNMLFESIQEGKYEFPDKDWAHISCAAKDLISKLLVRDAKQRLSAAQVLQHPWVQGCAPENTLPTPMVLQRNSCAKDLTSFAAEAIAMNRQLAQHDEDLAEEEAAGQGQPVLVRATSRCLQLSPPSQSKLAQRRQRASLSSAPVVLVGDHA

| Sequence | Mnk2(h) % activity [1] [%] | KDR(h) % activity [2] [%] | CaMKIδ(h) % activity [3] [%] | SAPK3(h) % activity [4] [%] | VRK2(h) % activity [5] [%] | mTOR/FKBP12(h) % activity [6] [%] | Abl(Q252H)(h) % activity [7] [%] | IGF-1R(h), activated % activity [8] [%] | CSK(h) % activity [9] [%] | GSK3α(h) % activity [10] [%] | PKCι(h) % activity [11] [%] | EphA3(h) % activity [12] [%] | ZIPK(h) % activity [13] [%] | PAK2(h) % activity [14] [%] | PKCη(h) % activity [15] [%] | cSRC(h) % activity [16] [%] |
| --- | --- | --- | --- | --- | --- | --- | --- | --- | --- | --- | --- | --- | --- | --- | --- | --- |
| HRRIKAWLKKIKALARQLGVAA (Mammalian) [MMI-0500] | 6 | 15 | 0 | 24 | 169 | 140 | 40 | 45 | 2 | 175 | 7 | 33 | 1 | 44 | 45 | 30 |
| KAFAKLAARLYRKALARQLGVAA [MMI-0400] | 86 | 94 | 17 | 79 | 185 | 125 | 98 | 77 | 16 | 164 | 46 | 12 | 13 | 59 | 98 | 14 |
| FAKLAARLYRKALARQLGVAA [MMI-0300] | 89 | 101 | 10 | 84 | 161 | 145 | 82 | 80 | 49 | 157 | 68 | 6 | 28 | 65 | – | 26 |
| YARAAARQARAKALNRQLGVA (Mammalian) [MMI-0200] | – | 110 | 47 | 97 | – | 118 | – | 94 | 33 | – | 97 | – | 67 | 69 | 101 | 32 |
